In patent EP4692127A1 (Kangma-Healthcode (Shanghai) Biotech Co., Ltd, dated 2026):

Molecular target: recombinant human PD-1 protein (human, UniProt Q15116 25-167)
Test: indirect ELISA, recombinant human PD-1 coated, HRP anti-human IgG (Fab specific), 4-parameter fit

Chain of recombinant human PD-1 protein (Q15116 25-167 limits assumed): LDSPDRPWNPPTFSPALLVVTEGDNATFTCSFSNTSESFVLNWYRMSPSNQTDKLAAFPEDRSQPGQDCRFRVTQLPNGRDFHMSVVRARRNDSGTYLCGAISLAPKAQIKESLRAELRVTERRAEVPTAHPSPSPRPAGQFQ

B1: Commercially available Tislelizumab (antibody, human IgG4 S228P, kappa)
heavy: QVQLQESGPGLVKPSETLSLTCTVSGFSLTSYGVHWIRQPPGKGLEWIGVIYADGSTNYNPSLKSRVTISKDTSKNQVSLKLSSVTAADTAVYYCARAYGNYWYIDVWGQGTTVTVSSASTKGPSVFPLAPCSRSTSESTAALGCLVKDYFPEPVTVSWNSGALTSGVHTFPAVLQSSGLYSLSSVVTVPSSSLGTKTYTCNVDHKPSNTKVDKRVESKYGPPCPPCPAPPVAGGPSVFLFPPKPKDTLMISRTPEVTCVVVAVSQEDPEVQFNWYVDGVEVHNAKTKPREEQFNSTYRVVSVLTVVHQDWLNGKEYKCKVSNKGLPSSIEKTISKAKGQPREPQVYTLPPSQEEMTKNQVSLTCLVKGFYPSDIAVEWESNGQPENNYKTTPPVLDSDGSFFLYSKLTVDKSRWQEGNVFSCSVMHEALHNHYTQKSLSLSLGK
light: DIVMTQSPDSLAVSLGERATINCKSSESVSNDVAWYQQKPGQPPKLLINYAFHRFTGVPDRFSGSGYGTDFTLTISSLQAEDVAVYYCHQAYSSPYTFGQGTKLEIKRTVAAPSVFIFPPSDEQLKSGTASVVCLLNNFYPREAKVQWKVDNALQSGNSQESVTEQDSKDSTYSLSSTLTLSKADYEKHKVYACEVTHQGLSSPVTKSFNRGEC
Binder B1 has an EC50 of 0.0143 µg/mL.
